The text below walks through data of patent US20110275138A1, “KETOSE 3-EPIMERASE, ITS PREPARATION AND USES” (KABUSHIKI KAISHA HAYASHIBARA SEIBUTSU KAGAKU KENKYUJO, priority 2005, published 2011).

Data set [1] is described as follows: Ketose 3-epimerase activity assay: D-fructose formed from D-psicose. Type of data set: biochemical. As to conditions: D-psicose 3-epimerase activity, per purification step. On the procedure:
The activity of the ketose 3 -epimerase of the present invention can be assayed by measuring the amount of D-fructose formed from D-psicose as a substrate. Specifically, the activity of the enzyme can be assayed as follows: A substrate solution is prepared by dissolving D-psicose in 20 mM Tris-HCl buffer (pH 8.0) containing 1 mM MnCl2 to give a final concentration of 1% (w/v). Two milliliters of the substrate solution is admixed with 0.5 ml of the enzyme solution, and the mixture solution is incubated at 45° C. for 30 min. The reaction is stopped by keeping the reaction mixture in boiling water bath for 5 min. Successively, 1 ml of the reaction mixture is admixed with 1 ml of deionized water and 1 ml NADP solution, prepared by dissolving 2.37 g of NADP, 5.93 g of ATP, and 1 g of MgSO4 7H2O into 500 ml of 0.3 M triethanolamine-HCl buffer (pH 7.6). […] After keeping the resulting mixture at room temperature for 30 min, absorbance of the mixture at 340 nm was measured for determining the amount of D-fructose formed by the reaction. […]
The following experiments explain the present invention in detail. In the following experiments, D-psicose 3-epimerase activity, converting D-psicose into D-fructose, was assayed according to the aforementioned assay method and expressed as ketose 3-epimerase activity.

Data set [2] is described as follows: Optimum pH and optimum temperature of the enzyme. The data set is classed as biochemical. As to conditions: for Optimum temperature: pH 8.0, 30 min. On the procedure: The activity of the ketose 3 -epimerase of the present invention can be assayed by measuring the amount of D-fructose formed from D-psicose as a substrate. Specifically, the activity of the enzyme can be assayed as follows: A substrate solution is prepared by dissolving D-psicose in 20 mM Tris-HCl buffer (pH 8.0) containing 1 mM MnCl2 to give a final concentration of 1% (w/v). Two milliliters of the substrate solution is admixed with 0.5 ml of the enzyme solution, and the mixture solution is incubated at 45° C. for 30 min. The reaction is stopped by keeping the reaction mixture in boiling water bath for 5 min. Successively, 1 ml of the reaction mixture is admixed with 1 ml of deionized water and 1 ml NADP solution, prepared by dissolving 2.37 g of NADP, 5.93 g of ATP, and 1 g of MgSO4 7H2O into 500 ml of 0.3 M triethanolamine-HCl buffer (pH 7.6). While, Enzyme solution A and B, described below, were respectively diluted 4-fold with 0.3 M triethanolamine-HCl buffer (pH 7.6) and then both solutions were mixed in equal amount to make into a mixed enzyme solution. Then, 40 ml of the mixed enzyme solution was admixed with the mixture prepared above. After keeping the resulting mixture at room temperature for 30 min, absorbance of the mixture at 340 nm was measured for determining the amount of D-fructose formed by the reaction. […]
According to the methods described in Experiment 2, the soluble fraction of cell homogenate, obtained by the method in Experiment 5, was partially purified by salting out, dialysis and successive column chromatographies on “SEPABEADS” gel and “BUTYL-TOYOPEARL” gel, and the partially purified enzyme preparation was analyzed according to the methods in Experiment 3. […]

Marks after values point to notes of the source that are not given here.

B1: ketose 3-epimerase: purified ketose 3-epimerase from Rhizobium leguminosarum ATCC14480, 282 amino acid residues represented by SEQ ID NO: 2 (protein, listed as Rhizobium leguminosarum)
chain: MEGFGVHTSMWTMNWDRAGAEKAIAGAVHYKMDFIEIALLNAPAVDAKHTRALLEKNKLRAVCSLGLPEHAWASVRPDAAIEHLKVAIEKTAEMNAEALSGVIFGGIGERTGVPPTQGEYDNIAKVLDVAAKHARKHGIQLGVEAVNRYENHLINSAQQAVDMVERVGADNIFVHLDTYHMNIEEKGAANGILIARDHLKYIHLSESDRGTPGYGNIPWDAIYAALAAIGFKGGLAMESFINMPPEVAYGLAVWRPVARDMEEVMDKGLPFLRNKAEQYGLI
In the case of B1, the “Specific activity of ketohexose 3-epimerase” value in data set [1] is given as 41.6 units/mg-protein. Besides, the “Optimum pH” value in data set [2] (45° C., 30 min, in the presence of 1 mM Mn2+ ion) is listed as 9.0-9.5*. The Optimum temperature in data set [2] (in the absence of 1 mM Mn2+ ion) was 50 °C; in data set [2] (in the presence of 1 mM Mn2+ ion) it was “(65° C.)*”.
